B1: KRT13 (parent)
chain: TPGIDLTRVLAEMREQYEAMAERN

Variants of: B1
Assay: protein stability index of a GFP-peptide fusion (GPS, HEK-293T) (PSI 1-6); higher = more stable
Settings: c terminus: a fixed tail appended
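Note: lentivirally expressed fusions sorted by FACS into six bins by GFP to DsRed ratio, PSI derived from sequencing read proportions per bin multiplied by bin number.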

Q: Which protein stability index does the source give for TPGIDLTRVLAEMAEQYEAMAERN here?
A: 2.08

Q: With TPGIDLTRVLAEMFEQYEAMAERN as the variant, how does the protein stability index read?
A: 3.65

Q: Which protein stability index does the source give for TPGIDLTRVLAEMYEQYEAMAERN here?
A: 3.61

Q: Which protein stability index does the source give for TPGIDLTRVLAEMPEQYEAMAERN here?
A: 4.42

Q: With TPGIDLTRVLAEMHEQYEAMAERN as the variant, how does the protein stability index read?
A: 3.61

Q: With TPGIDLTRVLAEMEEQYEAMAERN as the variant, how does the protein stability index read?
A: 4.28

Q: For TPGIDLTRVLAEMLEQYEAMAERN, which protein stability index is on record?
A: 2.42

Q: With TPGIDLTRVLAQMREQYEAMAERN as the variant, how does the protein stability index read?
A: 4.76

Q: Which protein stability index does the source give for TPGIDLTRVLAHMREQYEAMAERN here?
A: 3.08

Q: For TPGIDLTRVLAIMREQYEAMAERN, which protein stability index is on record?
A: 2.72

Q: Which protein stability index does the source give for TPGIDLTRVLACMREQYEAMAERN here?
A: 2.66

Q: Which protein stability index does the source give for TPGIDLTRVLAWMREQYEAMAERN here?
A: 3.06

Q: With TPGIDLTRVLATMREQYEAMAERN as the variant, how does the protein stability index read?
A: 4.09

Q: For TPGIDLTRVLANMREQYEAMAERN, which protein stability index is on record?
A: 3.87

Q: With TPGIDLTRVLAFMREQYEAMAERN as the variant, how does the protein stability index read?
A: 3.42

Q: With TPGIDLTRVLAPMREQYEAMAERN as the variant, how does the protein stability index read?
A: 4.36

Q: With TPGIDLTRVLAMMREQYEAMAERN as the variant, how does the protein stability index read?
A: 2.96

Q: Which protein stability index does the source give for TPGIDLTRVLAYMREQYEAMAERN here?
A: 3.37

Q: With TPGIDLTRVLARMREQYEAMAERN as the variant, how does the protein stability index read?
A: 1.05

Q: For TPGIDLTRVLAAMREQYEAMAERN, which protein stability index is on record?
A: 3.15

Q: For TPGIDLTRVLAKMREQYEAMAERN, which protein stability index is on record?
A: 2.23

Q: With TPGIDLTRVLAEMREKYEAMAERN as the variant, how does the protein stability index read?
A: 4.78

Q: Which protein stability index does the source give for TPGIDLTRVLAEMREEYEAMAERN here?
A: 3.97

Q: With TPGIDLTRVLAEMRECYEAMAERN as the variant, how does the protein stability index read?
A: 4.57

Q: Which protein stability index does the source give for TPGIDLTRVLAEMRELYEAMAERN here?
A: 2.94

Q: For TPGIDLTRVLAEMREPYEAMAERN, which protein stability index is on record?
A: 4.08

Q: For TPGIDLTRVLAEMREIYEAMAERN, which protein stability index is on record?
A: 3.38

Q: Which protein stability index does the source give for TPGIDLTRVLAEMREFYEAMAERN here?
A: 3.21

Q: Which protein stability index does the source give for TPGIDLTRVLAEMRENYEAMAERN here?
A: 3.8

Q: With TPGIDLTRVLAEMREDYEAMAERN as the variant, how does the protein stability index read?
A: 4.61

Q: Which protein stability index does the source give for TPGIDLTRVLAEMREHYEAMAERN here?
A: 3.31

Q: With TPGIDNTRVLAEMREQYEAMAERN as the variant, how does the protein stability index read?
A: 5.14

Q: With TPGIDDTRVLAEMREQYEAMAERN as the variant, how does the protein stability index read?
A: 3.84

Q: Which protein stability index does the source give for TPGIDVTRVLAEMREQYEAMAERN here?
A: 3.88

Q: Which protein stability index does the source give for TPGIDQTRVLAEMREQYEAMAERN here?
A: 5.01

Q: With TPGIDITRVLAEMREQYEAMAERN as the variant, how does the protein stability index read?
A: 4.13

Q: For TPGIDFTRVLAEMREQYEAMAERN, which protein stability index is on record?
A: 3.98

Q: With TPGIDRTRVLAEMREQYEAMAERN as the variant, how does the protein stability index read?
A: 4.84

Q: Which protein stability index does the source give for TPGIDSTRVLAEMREQYEAMAERN here?
A: 5.29

Q: Which protein stability index does the source give for TPGIDTTRVLAEMREQYEAMAERN here?
A: 5.4

Q: Which protein stability index does the source give for TPGIDGTRVLAEMREQYEAMAERN here?
A: 4.98

Q: Which protein stability index does the source give for TPGIDETRVLAEMREQYEAMAERN here?
A: 4.69

Q: Which protein stability index does the source give for TPGIDKTRVLAEMREQYEAMAERN here?
A: 4.7

Q: For TPGIDYTRVLAEMREQYEAMAERN, which protein stability index is on record?
A: 3.37

Q: Which protein stability index does the source give for TPGIDHTRVLAEMREQYEAMAERN here?
A: 3.99

Q: Which protein stability index does the source give for TPGIDCTRVLAEMREQYEAMAERN here?
A: 4.79

Q: With TPGIDWTRVLAEMREQYEAMAERN as the variant, how does the protein stability index read?
A: 3.09

Q: For TPGIDATRVLAEMREQYEAMAERN, which protein stability index is on record?
A: 4.15

Q: Which protein stability index does the source give for TPGIDLPRVLAEMREQYEAMAERN here?
A: 4.16

Q: Which protein stability index does the source give for TPGIDLARVLAEMREQYEAMAERN here?
A: 3.77

Q: With TPGIDLNRVLAEMREQYEAMAERN as the variant, how does the protein stability index read?
A: 3.92

Q: For TPGIDLERVLAEMREQYEAMAERN, which protein stability index is on record?
A: 4.25

Q: Which protein stability index does the source give for TPGIDLRRVLAEMREQYEAMAERN here?
A: 2.8

Q: With TPGIDLGRVLAEMREQYEAMAERN as the variant, how does the protein stability index read?
A: 3.36

Q: For TPGIDLLRVLAEMREQYEAMAERN, which protein stability index is on record?
A: 2.17

Q: With TPGIDLHRVLAEMREQYEAMAERN as the variant, how does the protein stability index read?
A: 3.81

Q: For TPGIDLWRVLAEMREQYEAMAERN, which protein stability index is on record?
A: 3.28

Q: With TPGIDLFRVLAEMREQYEAMAERN as the variant, how does the protein stability index read?
A: 2.24

Q: With TPGIDLDRVLAEMREQYEAMAERN as the variant, how does the protein stability index read?
A: 4.45

Q: For TPGIDLKRVLAEMREQYEAMAERN, which protein stability index is on record?
A: 2.88

Q: For TPGIDLIRVLAEMREQYEAMAERN, which protein stability index is on record?
A: 2.26

Q: With TPGIDLVRVLAEMREQYEAMAERN as the variant, how does the protein stability index read?
A: 2.81

Q: With TPGIDLSRVLAEMREQYEAMAERN as the variant, how does the protein stability index read?
A: 3.07

Q: Which protein stability index does the source give for TPGIDLTRVVAEMREQYEAMAERN here?
A: 4.8

Q: For TPGIDLTRVQAEMREQYEAMAERN, which protein stability index is on record?
A: 5.15

Q: Which protein stability index does the source give for TPGIDLTRVDAEMREQYEAMAERN here?
A: 5.17

Q: Which protein stability index does the source give for TPGIDLTRVPAEMREQYEAMAERN here?
A: 5.31

Q: With TPGIDLTRVYAEMREQYEAMAERN as the variant, how does the protein stability index read?
A: 4.4

Q: For TPGIDLTRVKAEMREQYEAMAERN, which protein stability index is on record?
A: 4.14

Q: For TPGIDLTRVCAEMREQYEAMAERN, which protein stability index is on record?
A: 4.22

Q: For TPGIDLTRVWAEMREQYEAMAERN, which protein stability index is on record?
A: 4.09

Q: For TPGIDLTRVRAEMREQYEAMAERN, which protein stability index is on record?
A: 4.12

Q: With TPGIDLTRVFAEMREQYEAMAERN as the variant, how does the protein stability index read?
A: 4.55

Q: With TPGIDLTRVEAEMREQYEAMAERN as the variant, how does the protein stability index read?
A: 5.2

Q: For TPGIDLTRVTAEMREQYEAMAERN, which protein stability index is on record?
A: 5.01

Q: Which protein stability index does the source give for TPGIDLTRVNAEMREQYEAMAERN here?
A: 5.71

Q: Which protein stability index does the source give for TPGIDLTRVSAEMREQYEAMAERN here?
A: 4.87

Q: With TPGIDLTRVGAEMREQYEAMAERN as the variant, how does the protein stability index read?
A: 5.23

Q: With TPGIDLTRVHAEMREQYEAMAERN as the variant, how does the protein stability index read?
A: 4.95

Q: Which protein stability index does the source give for TPGIDLTRVIAEMREQYEAMAERN here?
A: 3.25

Q: Which protein stability index does the source give for TPGIDLTRVMAEMREQYEAMAERN here?
A: 4.48

Q: With TPGIDLTKVLAEMREQYEAMAERN as the variant, how does the protein stability index read?
A: 4.69

Q: With TPGIDLTDVLAEMREQYEAMAERN as the variant, how does the protein stability index read?
A: 2.73

Q: For TPGIDLTFVLAEMREQYEAMAERN, which protein stability index is on record?
A: 3.13

Q: With TPGIDLTPVLAEMREQYEAMAERN as the variant, how does the protein stability index read?
A: 3.61

Q: With TPGIDLTLVLAEMREQYEAMAERN as the variant, how does the protein stability index read?
A: 2.64

Q: Which protein stability index does the source give for TPGIDLTWVLAEMREQYEAMAERN here?
A: 3.25

Q: Which protein stability index does the source give for TPGIDLTMVLAEMREQYEAMAERN here?
A: 4.01

Q: For TPGIDLTQVLAEMREQYEAMAERN, which protein stability index is on record?
A: 4.15

Q: For TPGIDLTHVLAEMREQYEAMAERN, which protein stability index is on record?
A: 4.05

Q: With TPGIDLTNVLAEMREQYEAMAERN as the variant, how does the protein stability index read?
A: 4.11

Q: For TPGIDLTAVLAEMREQYEAMAERN, which protein stability index is on record?
A: 4.26

Q: For TPGIDLTIVLAEMREQYEAMAERN, which protein stability index is on record?
A: 3.08

Q: Which protein stability index does the source give for TPGIDLTYVLAEMREQYEAMAERN here?
A: 3.39

Reference: the supplement of paper PMC10567573
